Patent US6956022B2, “Agents for preventing and treating thrombocytopenia” (Chugai Seiyaku Kabushiki Kaisha, priority 1996, dated 2005)

Columns and labels:
platelet counts = test: Test for single-dose administration to mouse (peripheral platelet count); assay type: in vivo; details: C57B1/6N mice, single dose 10 μg/kg through the tail vein, 6 and 9 h after the administration
Protocol: Test for Single-dose Administration to Mouse
Nine-week old male C57B1/6N mice as purchased from Japan Charles River Co. Ltd. were used in the experiment.
Human PTH(1-84) was dissolved in a citrate buffer (pH 5; containing 0.05% of Tween 80) at final concentrations of 1, 0.2 and 0.04 ˜g/mL so as to prepare the drug solutions to be administered.
Each of the thus prepared drug solutions and a control (citrate buffer) was administered to 15 mice through the tail vein in a volume of 10 mL/kg. […] The administration was initiated at 10 a.m.
After 3, 6 and 9 hours of the administration, five mice were picked up at random from each group of animals and blood samples were withdrawn through the orbital vein. At 10 a.m. on the same day, separate blood samples were taken from untreated mice (four in number) to obtain the preadministration value. Peripheral corpuscle counts were obtained with an automatic corpuscle counter F-800 (TOA MEDICAL ELECTRONICS CO., LTD.)

platelet count [1] = test: Test for daily administration to mouse (peripheral platelet count); assay type: in vivo; details: C57B1/6N mice, subcutaneous once a day
Protocol: Test for Daily Administration to Mouse
Nine-week old male C57B1/6N mice as purchased from Japan Charles River Co., Ltd. were used in the experiment.
Drug solutions to be administered were prepared basically by the same procedure as in Example 1 to give drug concentrations of 5, 20 and 80 μg/mL.
The mice under test were divided into four groups, which were administered subcutaneously with the three drug solutions and a control (citrate buffer) once a day in a volume of 10 mL/kg. […] The administration was initiated at 10 a.m.
On days 5, 7 and 9 after the start of administration, five or six mice were picked up at random from each group of animals and blood samples were withdrawn through the orbital vein. The sampling of blood was timed to occur 24 h of the final administration. Separate blood samples were taken from untreated mice (five in number) to obtain the value for normal mouse. Peripheral corpuscle counts were obtained with an automatic corpuscle counter F-800(TOA MEDICAL ELECTRONICS CO., LTD.).

platelet count [2] = test: Test for daily administration to rabbit (platelet count); assay type: in vivo; details: rabbits, 200 μg/kg subcutaneous daily
Protocol: Test for Daily Administration to Rabbit
Six 12-15 week old male Japanese albino rabbits JW/CSK were used in the experiment. The animals were individually kept in aluminum rabbit bracket cages Rb-1 (350^w×500^d×350^h mm) in a vavarium in a specific pathogen-free environment under the following conditions: temperature, 24±2° C.; humidity, 50±10%; illumination, light turned on at 5:00 and turned off at 19:00; ventilation, 15 changes/hr. Each animal was supplied with 120 g of a radiation-sterilized feed for rabbits RM (purchased from Funahashi Farm) per day. The animals were also allowed to drink to tap water ad libitum from an automatic water feeder.
Human PTH(1-84) was administered in a volume of 2 mL/vial at a concentration of 200 μg/mL. A solvent was also supplied in a volume of 2 mL/vial. Both the drug and the control were stored at −135° C. until use.
PTH (200 μg/kg) was administered to the rabbits subcutaneously at the back of their neck for 13 consecutive days. The solvent was similarly administered in the same volume as the dose of a rh-PTH solution calculated from their body weight.
Blood samples (0.5 mL) were withdrawn from the rabbits through the lateral auricular vein before the administration and on days 2, 6, 9 and 13 during the administration period. […]

[3] = system: BFU-E (precursor cells of erythrocytes); details: cited from earlier work
[4] = system: CFU-GM (precursor cells of granulocytes and macrophages); details: cited from earlier work

B1: human PTH(1-84) (protein, UniProt P01270 32-115, looked up)
Parathyroid hormone: SVSEIQLMHNLGKHLNSMERVEWLRKKLQDVHNFVALGAPLAPRDAGSQRPRKKEDNVLVESHEKSLGEADKADVNVLTKAKSQ
modifications: Parathyroid hormone
- platelet counts versus control (platelet counts): significant increase in platelet counts over the control
- platelet count versus control (platelet count [1]; all treated groups (50, 200 and 800 μg/kg), day 7): significantly higher in platelet count than the control
- platelet count versus control (platelet count [1]; groups administered 200 and 800 μg/kg, day 5): tendency to increase
- platelet count relative to the initial level (platelet count [2]; day 13): substantially returned to the initial level
- platelet count relative to the initial value (platelet count [2]; increase from day 2 until day 6): two to four times as great as the initial value
- in vitro colony formation by BFU-E [3]: interfered with
- in vitro colony formation by CFU-GM [4]: interfered with
